# Test results: the DeepSol protein solubility set
# Test: soluble on expression in E. coli; label from the status in PepcDB or PDB records
row,Sequence,soluble on expression in E. coli
1,MRFEEEIGSLQMLCDQFQNKINTLEKQMNEEKKDYVQKLHRLHEKNGEAIDKMKQLDHTMQAVSTKVVHLGDQLESVDQPRSRAHDAHQLMQHFDEFLSDQPLNSMIFTDPDKLLESADLVHKLYSISQELNKDKFANVQARIGQRYKVVEDLLIEEFVRSQRDEKKMAEVAKILSEFKGYSGCVDRYVDFLCQSIHPRGDGGEILADCLQLCRTQQPRISAIFPSPHTVMQKLVLNIFTGRMKETITARLRECKDTDDQEHYLRDLAYLYSSTLKMCKELEKLHISPDSAFLSTLTDSIFQRYIATYCSEELKYLNDQCSNLLQRFYESKKHVKKQIGGGLHELKRDVAARLMNVETYGGETFVAEDVAISILQETKNAFGRANQLCDKEELPRHVENIVDVLLKYLYGEHLDYAVETGLAGISLAESKTEPPAYFFSVVAKCTSVILLMIKQFEDPIFPIIKETIVEPSVAKKWQQSLRSLESKMSLGLERQLNSIVGYVKFLFSEQKKTDFRPDSQQIDIRVSPQCQLASRFLANQVAAMELGCDGENLEALQSDLATRLFKFMLTHIQQFTYNSTGAVLLLCDVGELRTLVSKWRVQNALTQWESLQALTNLLAVLPDQVNETAHSSLLENVDRQLIHDFVRLRTDFRSIKNFQI,not soluble
2,MSNVQEWQQLANKELSRREKTVDSLVHQTAEGIAIKPLYTEADLDNLEVTGTLPGLPPYVRGPRATMYTAQPWTIRQYAGFSTAKESNAFYRRNLAAGQKGLSVAFDLATHRGYDSDNPRVAGDVGKAGVAIDTVEDMKVLFDQIPLDKMSVSMTMNGAVLPVLAFYIVAAEEQGVTPDKLTGTIQNDILKEYLCRNTYIYPPKPSMRIIADIIAWCSGNMPRFNTISISGYHMGEAGANCVQQVAFTLADGIEYIKAAISAGLKIDDFAPRLSFFFGIGMDLFMNVAMLRAARYLWSEAVSGFGAQDPKSLALRTHCQTSGWSLTEQDPYNNVIRTTIEALAATLGGTQSLHTNAFDEALGLPTDFSARIARNTQIIIQEESELCRTVDPLAGSYYIESLTDQIVKQARAIIQQIDEAGGMAKAIEAGLPKRMIEEASAREQSLIDQGKRVIVGVNKYKLDHEDETDVLEIDNVMVRNEQIASLERIRATRDDAAVTAALNALTHAAQHNENLLAAAVNAARVRATLGEISDALEVAFDRYLVPSQCVTGVIAQSYHQSEKSASEFDAIVAQTEQFLADNGRRPRILIAKMGQDGHDRGAKVIASAYSDLGFDVDLSPMFSTPEEIARLAVENDVHVVGASSLAAGHKTLIPELVEALKKWGREDICVVAGGVIPPQDYAFLQERGVAAIYGPGTPMLDSVRDVLNLISQHHD,soluble
3,MDSVELCLPESFSLHYEEELLCRMSNKDRHIDSSCSSFIKTEPSSPASLTDSVNHHSPGGSSDASGSYSSTMNGHQNGLDSPPLYPSAPILGGSGPVRKLYDDCSSTIVEDPQTKCEYMLNSMPKRLCLVCGDIASGYHYGVASCEACKAFFKRTIQGNIEYSCPATNECEITKRRRKSCQACRFMKCLKVGMLKEGVRLDRVRGGRQKYKRRIDAENSPYLNPQLVQPAKKPYNKIVSHLLVAEPEKIYAMPDPTVPDSDIKALTTLCDLADRELVVIIGWAKHIPGFSTLSLADQMSLLQSAWMEILILGVVYRSLSFEDELVYADDYIMDEDQSKLAGLLDLNNAILQLVKKYKSMKLEKEEFVTLKAIALANSDSMHIEDVEAVQKLQDVLHEALQDYEAGQHMEDPRRAGKMLMTLPLLRQTSTKAVQHFYNIKLEGKVPMHKLFLEMLEAKV,soluble
4,GPGSMLAASRLARGVAETVTRENFTISRLTNGLRVITCEDGNGITGMGLFSLNGPKFEEEGSFGAAAVMESLPLRSNTRMTTETISQSLGVFGNAYKVTNNREAMSVMLMMPRYHRKEGLDVLNGMWLHPTDNDEEFAVAKAQTLHRSSLMSRDATSMLFELVHKAGWSGRGLGNPLSPTEQQLEQLTLERFHAFHRRYTTPERTVLAATGVADHKTFVQEAEVRLQFPQATAPSLHSSSAETANKAAAATAQLHPYTGGCEYVQNTMAPESMNKFQEKNLSHIALFFQAIPMAHPDYFTFSVIQTLLGGGTSFSSGGPGKGMQTKLFREVLNREPNVHGMECITAWYSDGGLIGLYGSAPHEHVNNLLKIIIFQAASISQRVTPVHVEMAKNQLSSQLILLGEGREQLLNDMGFNLLVHNYTITPQETIQGSAQVTMARLHEVCAQLIEHPITFAVYGETKGMPEYRELVQALKKSYASLSKSTPA,not soluble
5,MEEEGSPDIIIVGAGISGLSTAVGLHRLGIRSMVLESSETLRATGFAFTTWFNAWKAMEALGVSQHIRSLHDRLEGWVVGTISAGTPPTEMLFPESEEYESRCVQRKLLLEALAGELPEETIRFSSKVVHIELSGCYKKVHLSDGTILKTKVLVGCDGVYSVVGKWLGFKNPATTARLAIRGLTHFPEGHGFGKRFFQFYGDGVRSGFIPCDHNTVYWFLTHTSTDIDEETNSEILKEFVLNKIKDLPENIKNVVETTDLDSMVMSQLKYRPPWELLWSNITKDNVCVAGDALHPMTPDIGQGGCSAMEDGVILARCLGEAIKAKSLKGETEENEEEGYKRIEEGLKKYAGERKWRSIDLITTAYTVGFIQQSRGKWMNMFRDRFLSSYLSRMLLKKSHFDCGSLVP,soluble
6,MINMKPQYYLGMMSGTSLDGVDIVLVDFSQDPQLILSDFFPMPEDLREKLTTLIQVGETTLQNLGELDHKLALLYSDCVNAFLQKNTFLPNQIQAIGCHGQTVWHSPNSQFPFTMQLGDMNLLAAKTGISVIGDFRRKDMAWGGQGAPLVPAFHEAVFSNSNFATAVLNIGGISNVSILFPNQAVIGFDTGPGNTLLDQWIEKHQGLRYDENGEWAAKGNVNKVLLDELLNEPFFSLPAPKSTGRELFNLVWLNHKIAKIREKLTALSVEMSFRPEDVQATLVELTVTSIVNALNQLQTDLPKRLLVCGGGAKNSLIMRGLHDNLLDWQVSTTTEQGFDIDYVEAAAFAWLAYCRINNLPANLPSVTGAKSAVSLGAIFPKD,not soluble
7,MGSDKIHHHHHHMKQILFMDTTLRDGEQSPGVNLNEQEKLQIARQLERLGIHVMEAGFAAASEGDFQSVKRIANTIQNATVMSLARAKESDIRRAYEAVKGAVSPRLHVFLATSDIHMKYKLCMSKEDVLDSIHRSVTLGKSLFPTVQFSAEDATRTARDFLAEAVEVAIRAGANVINIPDTVGYTNPEEYYSLFKYLQESVPSYEKAIFSCHCHDDLGMAVANSLAAVEGGALQVEGTINGIGERAGNAALEEVAVALHIRKDFYQAEPSMTLKEIKATSTLVSRLTGMVVPKNKAIVGANAFAHESGIHQDGVLKEVTTYEIIEPELVGESQNLFVLGKHSGRHAFTEKMKELGYEFTTEERDAVFEAFKKLADRKKEITEEDLRALMLGEAAFAAQQYNITQLQVHFVSNSTQCATVVLKDEEGNVFEDAATGSGSIEAIYNAIQRILGLECELADYRIQSITQGQDALAHVHVELKEGTHQVSGFGVAQDVLEASARAYVHAAGKLKSFIQLVK,not soluble
8,MGSDKIHHHHHHMSIQTPIRGLRSFCVASKCLSFKHAAAQLFLTPSAVSHQIKQLEEQLGFMLFKRNTRSIELTSSGKQFYQSIQPIIHQLESTISEFTHNQQNHTIVISLPEFFASELFIPRLSEWSEKNPSINLQLETVKAGSEPSQIADLSIVLANGKPNASIVQELFPIRYAAACNKKLYKKLKNSGFKALKNTPLILHRSRPWSWHQWAENLGVNDFDPKQIIQFDSMFGVARAAQQGMGIALVPLPMSKTWFSEQLLVKLFDEELNTNDRYYLIQHENMESKVELTLFANWVKETFMTDYL,not soluble
9,VSLEDYNLSEDLKVRLDSAEGIFVSGAPGSGKSTFVSALAERYKNMDKIVKTMESPRDLQVDEEITQYAPLEGSMEKTCDILLLVRPDYTIYDEVRKTKDFEIFADMRMAGVGMVGVVHASKAIDSIQRLIGRVELGIIPQIVDTVVFIENGKIGKVYEVEFNVKVPH,not soluble
10,GPGSMRSQRVLQRTRKQKMESSSCASAPIAVDAQDVVVPPAVAQARAWLSLYGACCTEEEVEMHPVVLSRVLQAVELVQSRSCLSSGSEGPLAATTTKHTCRSGEGDAEAATARSSPTALHEGDDSKRGKGEAGLSIDFGGLWMLLSEWIAILRSLVATVPLHTLSLRDTALGDAGLRCLCRQVATTSVKPASLEVASRCEACSFHLLGLSTLAAPPSCPPTIPGSWAASTLRLLDLSGAALTDGGPLASLLASCPQLHSLNLSDNSLGSRDAGLALLCAALQVHPSLEVLSLRRNCISGSRNGPAIAALAELIVARSVEGSRTLSKACGYGSALCRQQTPAAAAVAAQPLRRLDLSHNLLGTYFLLSDATMTHRAEAGRPSAAREYDMASSSGRHVGVHEAVASFPLVAALYLNNTLIELNLHNNGLPGALLEYVEAKLHVNQRTTGGGADFSKTVSTEIIASTTVRQVLIHRLRCTLDHILAGTANASGMVGATHTERGDAPPTEVPAESQSSVLSAAERRWTTGEVSELVQRLVYNVASDLSLF,not soluble
